Assay in all cases: Recombinant HDAC µSPOT microarray binding assay
In experiment [1] the target is T1, HDAC1 (Homo sapiens, UniProt Q13547).
T1 construct: HDAC1 (full length, C-terminal His tag, C-terminal FLAG tag, BPS Bioscience, cat. #: 50051); FLAG (C); purchased BPS Bioscience 50051
The note with it: µSPOT microarray; for Bottom (dose-response fit): fitted bottom plateau of the binding curve; for Top (dose-response fit): fitted top plateau of the binding curve.
Procedure: (§1) Experiments were performed twice, data were obtained with Array Analyze software (Active Motif), and data analysis and representation were performed with the GraphPad Prism 7 software. Outliers were curated manually and data were fitted to nonlinear regression [log(agonist) vs. response—variable slope (four parameters)]. […] Non-sigmoidal curves were denoted as not determined (N.D.) The pEC50 values were determined as the concentration of HDAC enzyme required for half-maximal binding signal.

Experiment [2] has as its target T2, HDAC2 (Homo sapiens, UniProt Q92769).
T2 construct: HDAC2 (full length, C-terminal His tag, BPS Bioscience, cat. #: 50002); purchased BPS Bioscience 50002
To be noted: for Bottom (Value) / Top (Value) / HillSlope (Value): HDAC2 microarray dose-response curve fit, X = Asuha, sheet Fig. 3 HDAC2; for Bottom (Value): bottom plateau; for Top (Value): top plateau.

Experiment [3] addresses T3, HDAC3/NCoR2 (Homo sapiens, UniProt O15379).
T3 construct: HDAC3/NCoR2 (full length, C-terminal His tag, NCoR2 N-terminal GST tag); purchased BPS Bioscience 50003
The note with it: for Bottom (dose-response curve fit): fitted bottom plateau of binding signal; for Top (dose-response curve fit): fitted top plateau of binding signal.
Procedure: as §1

For experiment [4], the target named is T4, HDAC8 (Homo sapiens, UniProt Q9BY41).
T4 construct: HDAC8 (full length, C-terminal His tag, BPS Bioscience, cat. #: 50008); purchased BPS Bioscience 50008
T4 sequence (Q9BY41 1-377): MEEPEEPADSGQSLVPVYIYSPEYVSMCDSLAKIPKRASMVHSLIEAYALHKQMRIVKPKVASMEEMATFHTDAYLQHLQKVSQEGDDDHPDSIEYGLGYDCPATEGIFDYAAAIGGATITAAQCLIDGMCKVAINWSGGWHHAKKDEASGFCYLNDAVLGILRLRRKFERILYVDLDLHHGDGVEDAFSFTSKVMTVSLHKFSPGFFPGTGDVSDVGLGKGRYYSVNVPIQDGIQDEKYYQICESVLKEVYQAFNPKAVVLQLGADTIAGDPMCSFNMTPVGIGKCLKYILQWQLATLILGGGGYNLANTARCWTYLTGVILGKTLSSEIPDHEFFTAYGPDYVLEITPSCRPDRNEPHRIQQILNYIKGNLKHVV
The note with it: for Bottom / HillSlope / Top: HDAC8 µSPOT microarray dose-response fit, X = Asuha, sheet Fig. 3 HDAC8; for Bottom: Bottom Value; for HillSlope: HillSlope Value; for Top: Top Value.
Procedure: as §1

The mark [5] stands for this setting: recombinant HDAC1, Fig. 3, X = Asuha, Hill slope of the binding curve.
Setting [6] is: recombinant HDAC1, Fig. 3, X = Asuha.
Setting [7] is: HDAC3 µSPOT microarray, Fig. 3, Hill slope of dose-response fit, X = Asuha.
[8] abbreviates: HDAC3 µSPOT microarray, Fig. 3, X = Asuha.
Setting [9] is: dose-response fit parameter, H4 K12X (X = Asuha) peptides, HDAC1.
Where [10] appears, read: dose-response fit parameter, µSPOT microarray, H4 K12X (X = Asuha) peptides, HDAC2.
The mark [11] stands for this setting: dose-response fit parameter, µSPOT microarray, H4 K12X (X = Asuha) peptides, HDAC3.

Residues, ends and D or L forms follow the SMILES beside them.
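For Bottom (Value) in this document: relative spot intensity from the six enzyme-concentration slides imaged together.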
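For Bottom (dose-response curve fit) in this document: peptide spots on cellulose slides incubated with rising HDAC enzyme concentrations, imaged together, four-parameter logistic fit, EC50 is enzyme concentration giving half-maximal binding signal, two experiments.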
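For Bottom (dose-response fit) in this document: relative spot intensity from the six enzyme-concentration slides imaged together.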
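For Bottom (dose-response fit) in this document: slides with spotted peptides incubated with six HDAC concentrations in HEPES buffer pH 7.4, spot intensities fitted by four-parameter logistic, EC50 as enzyme concentration giving half-maximal binding signal.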
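For LogEC50 (M) in this document: peptide spots on cellulose slides incubated with rising HDAC enzyme concentrations, imaged together, four-parameter logistic fit, EC50 is enzyme concentration giving half-maximal binding signal, two experiments.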
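For Top (Value) in this document: relative spot intensity from the six enzyme-concentration slides imaged together.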
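For Top (dose-response curve fit) in this document: peptide spots on cellulose slides incubated with rising HDAC enzyme concentrations, imaged together, four-parameter logistic fit, EC50 is enzyme concentration giving half-maximal binding signal, two experiments.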
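For Top (dose-response fit) in this document: relative spot intensity from the six enzyme-concentration slides imaged together.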
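For Top (dose-response fit) in this document: slides with spotted peptides incubated with six HDAC concentrations in HEPES buffer pH 7.4, spot intensities fitted by four-parameter logistic, EC50 as enzyme concentration giving half-maximal binding signal.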

T1 sequence (Q13547 whole entry): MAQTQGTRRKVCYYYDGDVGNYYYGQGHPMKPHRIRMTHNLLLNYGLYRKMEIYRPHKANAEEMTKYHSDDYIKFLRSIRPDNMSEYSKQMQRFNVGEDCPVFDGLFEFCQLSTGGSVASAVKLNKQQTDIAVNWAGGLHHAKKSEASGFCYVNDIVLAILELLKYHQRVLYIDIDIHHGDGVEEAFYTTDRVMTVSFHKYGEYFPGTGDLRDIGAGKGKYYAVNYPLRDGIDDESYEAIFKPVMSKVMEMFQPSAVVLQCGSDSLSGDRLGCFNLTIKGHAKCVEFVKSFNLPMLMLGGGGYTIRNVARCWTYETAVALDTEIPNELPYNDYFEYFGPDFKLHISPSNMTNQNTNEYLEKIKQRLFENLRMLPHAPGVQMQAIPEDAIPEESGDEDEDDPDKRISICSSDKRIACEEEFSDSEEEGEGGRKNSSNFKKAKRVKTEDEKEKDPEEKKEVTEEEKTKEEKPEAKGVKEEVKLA
T2 sequence (Q92769 whole entry): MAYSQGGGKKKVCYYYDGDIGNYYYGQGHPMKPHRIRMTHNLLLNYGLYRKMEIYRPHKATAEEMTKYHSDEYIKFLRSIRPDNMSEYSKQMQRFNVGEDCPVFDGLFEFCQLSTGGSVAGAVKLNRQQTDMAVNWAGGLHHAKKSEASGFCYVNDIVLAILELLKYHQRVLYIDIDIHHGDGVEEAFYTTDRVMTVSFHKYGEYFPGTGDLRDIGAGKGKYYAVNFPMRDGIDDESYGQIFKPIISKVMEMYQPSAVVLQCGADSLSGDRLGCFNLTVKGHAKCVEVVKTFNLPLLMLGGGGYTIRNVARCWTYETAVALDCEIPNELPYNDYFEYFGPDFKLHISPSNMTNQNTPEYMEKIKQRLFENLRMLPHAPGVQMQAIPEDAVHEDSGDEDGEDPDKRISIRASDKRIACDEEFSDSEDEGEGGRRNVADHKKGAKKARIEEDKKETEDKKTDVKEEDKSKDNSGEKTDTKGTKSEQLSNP
T3 sequence (O15379 whole entry): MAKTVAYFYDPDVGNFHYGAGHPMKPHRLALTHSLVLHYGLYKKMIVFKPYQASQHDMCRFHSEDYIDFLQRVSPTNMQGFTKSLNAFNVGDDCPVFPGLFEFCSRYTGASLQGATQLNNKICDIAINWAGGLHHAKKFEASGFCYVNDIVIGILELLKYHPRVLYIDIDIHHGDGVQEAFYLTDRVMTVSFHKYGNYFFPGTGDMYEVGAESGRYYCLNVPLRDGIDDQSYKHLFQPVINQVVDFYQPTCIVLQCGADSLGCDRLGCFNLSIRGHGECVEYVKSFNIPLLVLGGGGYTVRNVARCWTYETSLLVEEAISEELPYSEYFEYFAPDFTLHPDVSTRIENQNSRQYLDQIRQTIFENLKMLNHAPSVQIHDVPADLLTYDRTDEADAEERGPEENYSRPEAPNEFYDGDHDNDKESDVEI
T3 sequence (Q9Y618 389-480 partner limits assumed): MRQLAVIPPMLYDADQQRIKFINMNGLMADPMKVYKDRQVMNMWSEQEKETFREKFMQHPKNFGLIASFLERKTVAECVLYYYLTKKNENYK

Regarding “H2B 58-73 (AMGIMNSFVNDIFERI; UniProt P06899 59-74, looked up, fragment)”, the HillSlope in experiment [1] (setting [5]) amounted to 0.92. For the same compound, in experiment [1] (setting [6]), the “Bottom (dose-response fit)” value is given as 0.02 and the “Top (dose-response fit)” value is on record as 1.87. Also, in experiment [2], the “Bottom (Value)” value was found to be 0.03, the “Top (Value)” value stood at 0.16 and the “HillSlope (Value)” value is reported as 2.23. In addition, the HillSlope in experiment [3] (setting [7]) is on record as 1.96. Further, in experiment [3] (setting [8]), the “Bottom (dose-response curve fit)” value is reported as 0.02 and the “Top (dose-response curve fit)” value is 0.22. Besides, in experiment [4], the Bottom is given as 0.01, the HillSlope turned out to be 0.19 and the Top turned out to be 6.07.
Regarding “H2A 37-52 (GNYSERVGAGAPVYLA; UniProt P04908 38-53, looked up, fragment)”, the HillSlope in experiment [1] (setting [5]) stood at 0.92. Besides, in experiment [1] (setting [6]), the “Bottom (dose-response fit)” value is recorded as 0.01 and the “Top (dose-response fit)” value stood at 6.54. Also, in experiment [2], the “Bottom (Value)” value amounted to 0.01, the “Top (Value)” value is 3.9 and the “HillSlope (Value)” value stood at 0.79. The HillSlope in experiment [3] (setting [7]) came to 0.78. Also, in experiment [3] (setting [8]), the “Bottom (dose-response curve fit)” value was found to be 0 and the “Top (dose-response curve fit)” value is given as 0.79. In experiment [4], the Bottom was found to be 0.01, the HillSlope is 7.44 and the Top turned out to be 0.07.
As to “H2B 91-106 (SREIQTAVRLLLPGEL; UniProt P62807 92-107, looked up, fragment)”, the HillSlope in experiment [1] (setting [5]) was 1.35. Further, in experiment [1] (setting [6]), the “Bottom (dose-response fit)” value is recorded as 0.04 and the “Top (dose-response fit)” value worked out at 1.07. Further, in experiment [2], the “Bottom (Value)” value was found to be 0.03, the “Top (Value)” value was found to be 44.03 and the “HillSlope (Value)” value came to 0.48. Besides, in experiment [3] (setting [7]), the HillSlope was 1.45. Also, in experiment [3] (setting [8]), the “Bottom (dose-response curve fit)” value came to 0.01 and the “Top (dose-response curve fit)” value came to 0.55. In experiment [4], the Bottom amounted to 0.04, the HillSlope was determined as 6.48 and the Top was 0.09.
With “H2A 100-115 (VTIAQGGVLPNIQAVL; UniProt P0C0S8 101-116, looked up, fragment)”, in experiment [1] (setting [5]), the HillSlope came to 1.46. Also, in experiment [1] (setting [6]), the “Bottom (dose-response fit)” value was 0.02 and the “Top (dose-response fit)” value was 0.26. Moreover, in experiment [2], the “Bottom (Value)” value is recorded as 0.02, the “Top (Value)” value is on record as 9.23 and the “HillSlope (Value)” value stood at 0.88. For the same compound, the HillSlope in experiment [3] (setting [7]) came to 1.35. Also, in experiment [3] (setting [8]), the “Bottom (dose-response curve fit)” value is on record as 0 and the “Top (dose-response curve fit)” value stood at 0.72. For the same compound, in experiment [4], the Bottom is recorded as 0.02, the HillSlope came to 0.63 and the Top came out at 7.44.
Consider “P12 (KGLGXGGA; K12 replaced by Asuha (X))”, for which the results for the Bottom in experiment [1] (setting [9]), in experiment [2] (setting [10]) and in experiment [3] (setting [11]) were 0.01, 0.02 and 0.04, respectively. Besides, the HillSlope was determined as 0.67 in experiment [1] (setting [9]), 7.89 in experiment [2] (setting [10]) and 2.48 in experiment [3] (setting [11]). Besides, the Top came out at 0.47 in experiment [1] (setting [9]), 0.14 in experiment [2] (setting [10]) and 0.98 in experiment [3] (setting [11]). The “LogEC50 (M)” value in experiment [3] (log of EC50 in M, dose-response fit, µSPOT microarray, H4 K12X (X = Asuha) peptides, HDAC3) is on record as -8.71 M. The “HillSlope (Value)” value in experiment [4] (Hill slope of the µSPOT microarray dose-response fit, X = Asuha peptides) came to 1.3. Moreover, the “Bottom (Value)” value in experiment [4] (fitted bottom of the µSPOT microarray dose-response curve, X = Asuha peptides) worked out at 0.02. Besides, the “Top (Value)” value in experiment [4] (fitted top of the µSPOT microarray dose-response curve, X = Asuha peptides) is given as 0.58.
With “H2A 40-55 (AERVGAGAPVYLAAVL; UniProt P0C0S8 41-56, looked up, fragment)”, the HillSlope in experiment [1] (setting [5]) is 0.82. In addition, in experiment [1] (setting [6]), the “Bottom (dose-response fit)” value is on record as 0.02 and the “Top (dose-response fit)” value is listed as 5.13. Also, in experiment [2], the “Bottom (Value)” value is -0.05, the “Top (Value)” value was found to be 0.06 and the “HillSlope (Value)” value amounted to 0.08. In addition, the HillSlope in experiment [3] (setting [7]) is listed as 1.44. Moreover, in experiment [3] (setting [8]), the “Bottom (dose-response curve fit)” value worked out at 0 and the “Top (dose-response curve fit)” value is 0.3. Moreover, in experiment [4], the Bottom is 0.01, the HillSlope was found to be 2.67 and the Top was found to be 0.08.
For `CC[C@H](C)[C@H](NC(=O)[C@H](C)NC(=O)[C@H](CC(C)C)NC(=O)[C@H](CCC(N)=O)NC(=O)[C@H](CC(C)C)NC(=O)[C@H](Cc1c[nH]cn1)NC(=O)[C@H](CCCNC(=N)N)NC(=O)[C@@H]1CCCN1C(=O)[C@@H](NC(=O)[C@@H](NC(=O)[C@H](CCCNC(=N)N)NC(=O)[C@@H](NC(C)=O)[C@@H](C)O)[C@@H](C)CC)[C@@H](C)CC)C(=O)N[C@@H](CCCNC(=N)N)C(=O)N[C@@H](CC(N)=O)C(=O)N[C@@H](CC(=O)O)C(=O)N[C@@H](CCC(=O)O)C(N)=O` [H2A 76-91] (Ac-TRIIPRHLQLAIRNDE-NH2), in experiment [1] (setting [5]), the HillSlope came to 0.92. Besides, in experiment [1] (setting [6]), the “Bottom (dose-response fit)” value is 0.02 and the “Top (dose-response fit)” value was 2.64. In experiment [2], the “Bottom (Value)” value came to 0.03, the “Top (Value)” value turned out to be 73.18 and the “HillSlope (Value)” value was determined as 0.93. Moreover, the HillSlope in experiment [3] (setting [7]) was 1.12. For the same compound, in experiment [3] (setting [8]), the “Bottom (dose-response curve fit)” value is recorded as 0.01 and the “Top (dose-response curve fit)” value is on record as 1.3. Further, in experiment [4], the Bottom came to 0.03, the HillSlope came to 7.33 and the Top is on record as 0.15.
Consider “H2A 55-70 (LEYLTAEILELAGNAA; UniProt P0C0S8 56-71, looked up, fragment)”, for which the HillSlope in experiment [1] (setting [5]) came out at 1.43. In experiment [1] (setting [6]), the “Bottom (dose-response fit)” value turned out to be 0.02 and the “Top (dose-response fit)” value is 0.27. In experiment [2], the “Bottom (Value)” value came out at 0.01, the “Top (Value)” value is 2.34 and the “HillSlope (Value)” value stood at 0.64. The HillSlope in experiment [3] (setting [7]) is 1.26. In experiment [3] (setting [8]), the “Bottom (dose-response curve fit)” value is given as 0 and the “Top (dose-response curve fit)” value was 0.64. For the same compound, in experiment [4], the Bottom was found to be 0.02, the HillSlope amounted to 0.59 and the Top was found to be 3.05.

The record behind these values is publication PMC7782793, “Hydroxamic acid-modified peptide microarrays for profiling isozyme-selective interactions and inhibition of histone deacetylases” (Nature Communications, 2021).
